Data from patent US20130344077A1 (VET THERAPEUTICS, published 2013).

T1: human CD52 on human T-cell lymphoma HUT-78 cells (human, UniProt P31358 25-36)
T1 construct: whole, on cells; also called CAMPATH-1 antigen; CD52 positive lymphoma cells
T1 chain (looked up): GQNDTSQTSSPS


Target: target antigen of mab 231 on canine lymphoma cells (canine)
Assay: FACS on canine lymphoma cells positive for the mab 231 antigen, FITC anti-dog IgG secondary

Binding (%) | Binder
30.3 | VET106 VET217 anti-canine lymphoma antibody variant (mab 231 variable domains, canine lambda constant) (antibody) light: DIQMNQSPSSLSASLGDTITITCHASQNINVWLSWYQQKPGNIPKLLIYKASNLHTGVPSRFSGSGSGTGFTLTISSLQPEDIATYYCQQGQSYPLTFGGGTKLEIKGQPKASPSVTLFPPSSEELGANKATLVCLISDFYPSGVTVAWKADGSPITQGVETTKPSKQSNNKYAASSYLSLTPDKWKSHSSFSCLVTHEGSTVEKKVAPAECS heavy: EVKLVESGGGLVQPGGSLKLSCATSGFTFSDYYMYWVRQTPEKRLEWVAYISNGGGSTYYPDTVKGRFTISRDNAKNTLYLQMSRLKSEDTAMYYCARHGGYYAMDYWGQGTLVTVSSASTTAPSVFPLAPSCGSTSGSTVALACLVSGYFPEPVTVSWNSGSLTSGVHTFPSVLQSSGLYSLSSMVTVPSSRWPSETFTCNVAHPASKTKVDKPVPKRENGRVPRPPDCPKCPAPEMLGGPSVFIFPPKPKDTLLIARTPEVTCVVVDLDPEDPEVQISWFVDGKQMQTAKTQPREEQFNGTYRVVSVLPIGHQDWLKGKQFTCKVNNKALPSPIERTISKARGQAHQPSVYVLPPSREELSKNTVSLTCLIKDFFPPDIDVEWQSNGQQEPESKYRTTPPQLDEDGSYFLYSKLSVDKSRWQRGDTFICAVMHEALHNHYTQKSLSHSPGK
20.8 | VET107 VET217 anti-canine lymphoma antibody variant (mab 231 variable domains, canine kappa constant) (antibody) light: DIQMNQSPSSLSASLGDTITITCHASQNINVWLSWYQQKPGNIPKLLIYKASNLHTGVPSRFSGSGSGTGFTLTISSLQPEDIATYYCQQGQSYPLTFGGGTKLEIKNDAQPAVYLFQPSPDQLHTGSASVVCLLNSFYPKDINVKWKVDGVIQDTGIQESVTEQDKDSTYSLSSTLTMSSTEYLSHELYSCEITHKSLPSTLIKSFQRSECQRVD heavy: EVKLVESGGGLVQPGGSLKLSCATSGFTFSDYYMYWVRQTPEKRLEWVAYISNGGGSTYYPDTVKGRFTISRDNAKNTLYLQMSRLKSEDTAMYYCARHGGYYAMDYWGQGTLVTVSSASTTAPSVFPLAPSCGSTSGSTVALACLVSGYFPEPVTVSWNSGSLTSGVHTFPSVLQSSGLYSLSSMVTVPSSRWPSETFTCNVAHPASKTKVDKPVPKRENGRVPRPPDCPKCPAPEMLGGPSVFIFPPKPKDTLLIARTPEVTCVVVDLDPEDPEVQISWFVDGKQMQTAKTQPREEQFNGTYRVVSVLPIGHQDWLKGKQFTCKVNNKALPSPIERTISKARGQAHQPSVYVLPPSREELSKNTVSLTCLIKDFFPPDIDVEWQSNGQQEPESKYRTTPPQLDEDGSYFLYSKLSVDKSRWQRGDTFICAVMHEALHNHYTQKSLSHSPGK

Target: T1, human CD52 on human T-cell lymphoma …
Assay: FACS on HUT-78 cells, about 2 ug primary antibody, FITC goat anti-dog IgG secondary
Procedure: The binding of the antibody variants of the present invention was assessed using a fluorescence-activated cell sorter (FACS). In the present example, the antibody variants were incubated with the CD52 positive cells and the amount of bound antibody was assessed following incubation with a fluorescent-labeled reporter reagent. The reporter was thereafter measured by FACS.
Briefly, for each assay, one million cells of the human T-cell lymphoma HUT-78 cells were resuspended in FACS buffer (PBS+2% FBS). About 2 ug of the primary antibody were added to the cells and the samples were incubated at 4° C. for 1 hour. The primary antibody was provided as supernatants from transfected cells with recombinant antibody constructs or from purified antibody preparation. The rat anti-human CD52 mAb (Serotec) was added to the cells as a control. One ml of FACS buffer was added and cells were spin down for 3 min at 800×g in Eppendorf microcentrifuge. The cells were washed with 1 ml FACS buffer and spin down again. The secondary antibodies such as fluorescein-isothiocynate (FITC) conjugated goat anti-rat (Jackson ImmunoResearch), or the FITC-conjugated goat anti-dog IgG (H+L) (Bethyl Laboratories) were added in 100 μl of FACS buffer supplemented with 1% BSA to appropriate tubes and the tubes were incubated at 4° C. for 30 minutes. The wash steps were repeated. The cells were then resuspended in 500 μl FACS buffer and transferred into 12×75 mm polystyrene test tubes. The cells were analyzed by FACS with a FacScan cytometer using the CellQuest software (Becton-Dickenson). Several controls were utilized to determine the background fluorescence: (i) one tube of cells was incubated with the FITC-conjugated secondary antibody without the primary antibody, (ii) one tube of cells was incubated with PBS only, and (iii) one tube was incubated with the primary antibody without the FITC-conjugated secondary antibody.

Binding (%) | Binder
30.6 | VET112 VET224 antibody variant (anti-CD52) (antibody, Constant domains are added as separate pieces because the printed entries are variable domains only) light: QSVLTQPASVSGSLGQRVTISCKASQNIDKYLNWYQQKLGESPKLLIYNTNNLQTGIPSRFSGSGSGTDFTLTISSLQPEDVATYFCLQHISRPRTFGGGTHLTVGQPKASPSVTLFPPSSEELGANKATLVCLISDFYPSGVTVAWKADGSPITQGVETTKPSKQSNNKYAASSYLSLTPDKWKSHSSFSCLVTHEGSTVEKKVAPAECS heavy: EVKLLESGGGLVQPGGSMRLSCAGSGFTFTDFYMNWIRQPAGKAPEWLGFIRDKAKGYTTEYNPSVKGRFTISRDNTQNMLYLQMNTLRAEDTATYYCAREGHTAAPFDYWGQGTLVTVSSASTTAPSVFPLAPSCGSTSGSTVALACLVSGYFPEPVTVSWNSGSLTSGVHTFPSVLQSSGLYSLSSMVTVPSSRWPSETFTCNVAHPASKTKVDKPVPKRENGRVPRPPDCPKCPAPEMLGGPSVFIFPPKPKDTLLIARTPEVTCVVVDLDPEDPEVQISWFVDGKQMQTAKTQPREEQFNGTYRVVSVLPIGHQDWLKGKQFTCKVNNKALPSPIERTISKARGQAHQPSVYVLPPSREELSKNTVSLTCLIKDFFPPDIDVEWQSNGQQEPESKYRTTPPQLDEDGSYFLYSKLSVDKSRWQRGDTFICAVMHEALHNHYTQKSLSHSPGK
51.4 | VET111 VET222 chimeric antibody (rat anti-human CD52 variable domains on canine constant domains) (antibody, Expressed in 293F cells and used as supernatant or protein A purified) light: DIKMTQSPSFLSASVGDRVTLNCKASQNIDKYLNWYQQKLGESPKLLIYNTNNLQTGIPSRFSGSGSGTDFTLTISSLQPEDVATYFCLQHISRPRTFGTGTKLELKGQPKASPSVTLFPPSSEELGANKATLVCLISDFYPSGVTVAWKADGSPITQGVETTKPSKQSNNKYAASSYLSLTPDKWKSHSSFSCLVTHEGSTVEKKVAPAECS heavy: EVKLLESGGGLVQPGGSMRLSCAGSGFTFTDFYMNWIRQPAGKAPEWLGFIRDKAKGYTTEYNPSVKGRFTISRDNTQNMLYLQMNTLRAEDTATYYCAREGHTAAPFDYWGQGVMVTVSSASTTAPSVFPLAPSCGSTSGSTVALACLVSGYFPEPVTVSWNSGSLTSGVHTFPSVLQSSGLYSLSSMVTVPSSRWPSETFTCNVAHPASKTKVDKPVPKRENGRVPRPPDCPKCPAPEMLGGPSVFIFPPKPKDTLLIARTPEVTCVVVDLDPEDPEVQISWFVDGKQMQTAKTQPREEQFNGTYRVVSVLPIGHQDWLKGKQFTCKVNNKALPSPIERTISKARGQAHQPSVYVLPPSREELSKNTVSLTCLIKDFFPPDIDVEWQSNGQQEPESKYRTTPPQLDEDGSYFLYSKLSVDKSRWQRGDTFICAVMHEALHNHYTQKSLSHSPGK
40.1 | VET114 VET223 antibody variant (anti-CD52) (antibody, Constant domains are added as separate pieces because the printed entries are variable domains only) light: DIKMTQSPSFLSASVGDRVTLNCKASQNIDKYLNWYQQKLGESPKLLIYNTNNLQTGIPSRFSGSGSGTDFTLTISSLQPEDVATYFCLQHISRPRTFGGGTHLTVLGQPKASPSVTLFPPSSEELGANKATLVCLISDFYPSGVTVAWKADGSPITQGVETTKPSKQSNNKYAASSYLSLTPDKWKSHSSFSCLVTHEGSTVEKKVAPAECS heavy: EVQLVESGGDLVKPGGSLRLSCAGSGFTFTDFYMNWIRQPAGKAPEWLGFIRDKAKGYTTEYNPSVKGRFTISRDNTQNMLYLQMNTLRAEDTATYYCAREGHTAAPFDYWGQGTLVTVSSASTTAPSVFPLAPSCGSTSGSTVALACLVSGYFPEPVTVSWNSGSLTSGVHTFPSVLQSSGLYSLSSMVTVPSSRWPSETFTCNVAHPASKTKVDKPVPKRENGRVPRPPDCPKCPAPEMLGGPSVFIFPPKPKDTLLIARTPEVTCVVVDLDPEDPEVQISWFVDGKQMQTAKTQPREEQFNGTYRVVSVLPIGHQDWLKGKQFTCKVNNKALPSPIERTISKARGQAHQPSVYVLPPSREELSKNTVSLTCLIKDFFPPDIDVEWQSNGQQEPESKYRTTPPQLDEDGSYFLYSKLSVDKSRWQRGDTFICAVMHEALHNHYTQKSLSHSPGK

More lines, now with the values behind:

Binder | Binding (%)
VET114 VET224 antibody variant (anti-CD52, canine FR4 in both chains) (antibody, Constant domains are added as separate pieces because the printed entries are variable domains only) light: DIKMTQSPSFLSASVGDRVTLNCKASQNIDKYLNWYQQKLGESPKLLIYNTNNLQTGIPSRFSGSGSGTDFTLTISSLQPEDVATYFCLQHISRPRTFGGGTHLTVLGQPKASPSVTLFPPSSEELGANKATLVCLISDFYPSGVTVAWKADGSPITQGVETTKPSKQSNNKYAASSYLSLTPDKWKSHSSFSCLVTHEGSTVEKKVAPAECS heavy: EVKLLESGGGLVQPGGSMRLSCAGSGFTFTDFYMNWIRQPAGKAPEWLGFIRDKAKGYTTEYNPSVKGRFTISRDNTQNMLYLQMNTLRAEDTATYYCAREGHTAAPFDYWGQGTLVTVSSASTTAPSVFPLAPSCGSTSGSTVALACLVSGYFPEPVTVSWNSGSLTSGVHTFPSVLQSSGLYSLSSMVTVPSSRWPSETFTCNVAHPASKTKVDKPVPKRENGRVPRPPDCPKCPAPEMLGGPSVFIFPPKPKDTLLIARTPEVTCVVVDLDPEDPEVQISWFVDGKQMQTAKTQPREEQFNGTYRVVSVLPIGHQDWLKGKQFTCKVNNKALPSPIERTISKARGQAHQPSVYVLPPSREELSKNTVSLTCLIKDFFPPDIDVEWQSNGQQEPESKYRTTPPQLDEDGSYFLYSKLSVDKSRWQRGDTFICAVMHEALHNHYTQKSLSHSPGK | 47.8
VET112 VET223 antibody variant (anti-CD52, canine FR1 and FR4 in both chains) (antibody, Constant domains are added as separate pieces because the printed entries are variable domains only) light: QSVLTQPASVSGSLGQRVTISCKASQNIDKYLNWYQQKLGESPKLLIYNTNNLQTGIPSRFSGSGSGTDFTLTISSLQPEDVATYFCLQHISRPRTFGGGTHLTVGQPKASPSVTLFPPSSEELGANKATLVCLISDFYPSGVTVAWKADGSPITQGVETTKPSKQSNNKYAASSYLSLTPDKWKSHSSFSCLVTHEGSTVEKKVAPAECS heavy: EVQLVESGGDLVKPGGSLRLSCAGSGFTFTDFYMNWIRQPAGKAPEWLGFIRDKAKGYTTEYNPSVKGRFTISRDNTQNMLYLQMNTLRAEDTATYYCAREGHTAAPFDYWGQGTLVTVSSASTTAPSVFPLAPSCGSTSGSTVALACLVSGYFPEPVTVSWNSGSLTSGVHTFPSVLQSSGLYSLSSMVTVPSSRWPSETFTCNVAHPASKTKVDKPVPKRENGRVPRPPDCPKCPAPEMLGGPSVFIFPPKPKDTLLIARTPEVTCVVVDLDPEDPEVQISWFVDGKQMQTAKTQPREEQFNGTYRVVSVLPIGHQDWLKGKQFTCKVNNKALPSPIERTISKARGQAHQPSVYVLPPSREELSKNTVSLTCLIKDFFPPDIDVEWQSNGQQEPESKYRTTPPQLDEDGSYFLYSKLSVDKSRWQRGDTFICAVMHEALHNHYTQKSLSHSPGK | 24.4
